Experimental data taken from paper PMC5855643.

Tests used:
[1] = biological target: FcγRIIIa receptor, V158 (high affinity) variant
[2] = biological target: FcγRIIIa receptor, F158 (low affinity) variant (UniProt P08637)

| Substance | EC50 of the ADCC reporter bioassay, Daudi target cells, V/V 158 variant effector cells [1] [ng/mL] | EC50 of the ADCC reporter bioassay, Wil2-S target cells, V/V 158 variant effector cells [1] [ng/mL] | EC50 of the ADCC reporter bioassay, Daudi target cells, F/F 158 variant effector cells [2] [ng/mL] | EC50 of the ADCC reporter bioassay, Wil2-S target cells, F/F 158 variant effector cells [2] [ng/mL] |
| --- | --- | --- | --- | --- |
| reglycosylated plant-made rituximab (NbRTX^A2G2) (antibody) | 2.9 | 2.7 | 7 | 4.4 |
| Rituxan^® (rituximab, innovator product) (antibody) | 12 | 15.7 | 22 | 18 |
